Numbering of substitutions follows the chain as printed. Numbers in names are those of the source. Like-named read-outs stand apart in the source and are kept apart here.

These results are taken from PMC11574021, “CEP192 localises mitotic Aurora-A activity by priming its interaction with TPX2” (The EMBO Journal, 2024).

T1: phosphorylated Aurora-A CAKD (Homo sapiens, UniProt O14965, C290A/C393A)
T1 construct: 10 nM Aurora-A 122–403 C290A C393A phosphorylated protein; His (N, cleaved yes); made in house; host or cells: E. coli B834 (no lambda phosphatase)
T1 sequence (O14965 122-403 C290A/C393A): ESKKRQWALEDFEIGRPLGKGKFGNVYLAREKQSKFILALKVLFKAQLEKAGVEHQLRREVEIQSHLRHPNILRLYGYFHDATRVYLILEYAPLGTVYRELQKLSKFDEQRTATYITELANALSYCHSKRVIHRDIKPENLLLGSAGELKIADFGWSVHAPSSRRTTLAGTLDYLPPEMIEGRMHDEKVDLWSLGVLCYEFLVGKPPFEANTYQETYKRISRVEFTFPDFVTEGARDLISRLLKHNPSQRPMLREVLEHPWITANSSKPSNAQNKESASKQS

T2: Aurora-A CAKD (Homo sapiens, UniProt O14965, C290A/C393A)
T2 construct: 25 μM Aurora-A kinase domain (phosphorylated or unphosphorylated C290A C393A 122–403); His (N, cleaved yes); made in house; host or cells: E. coli
T2 sequence (O14965 122-403 C290A/C393A): T1 sequence (O14965 122-403 C290A/C393A)

T3: unphosphorylated Aurora-A CAKD (Homo sapiens, UniProt O14965, C290A/C393A)
T3 construct: 10 μM Aurora-A kinase domain (phosphorylated or unphosphorylated C290A C393A 122–403); His (N, cleaved yes); made in house; host or cells: E. coli RIL, co-expressed with lambda phosphatase
T3 sequence (O14965 122-403 C290A/C393A): T1 sequence (O14965 122-403 C290A/C393A)

T4: human CEP192 468–533 (human, UniProt Q8TEP8 468-533)
T4 construct: also called CEP192_(506-527_F); source: E. coli B834 RIL, purified (HisTrap, TEV cleavage, SEC); for crystallisation co-expressed with Aurora-A^M7KD and co-purified; not shown: His6, N-terminal, cleaved; SUMO, N-terminal, cleaved
T4 sequence (looked up): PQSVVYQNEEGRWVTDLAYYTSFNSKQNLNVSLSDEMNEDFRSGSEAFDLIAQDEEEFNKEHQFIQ

T5: Aurora-A^CAKD (Aurora-A kinase domain, aa 122–403 C290A, C393A), unphosphorylated (human, UniProt O14965 122-403, C290A | C393A)
T5 sequence: T1 sequence (O14965 122-403 C290A/C393A)

B1: Aurora-A^CAKD (Aurora-A kinase domain, aa 122–403 C290A, C393A), unphosphorylated (domain or fragment, human, UniProt O14965 122-403, looked up)
chain: T1 sequence (O14965 122-403 C290A/C393A)
notes: Aurora-A kinase domain, human, residues 122-403, variant lacking surface cysteines; also called Aurora-A 122–403 C290A C393A; unphosphorylated Aurora-A^CAKD; source: E. coli RIL, co-expressed with lambda phosphatase, purified (HisTrap, TEV cleavage, SEC); not shown: His6, N-terminal, cleaved
B2: human CEP192 468–533 Y487A/F490A (domain or fragment, UniProt Q8TEP8 468-533, looked up)
chain: T4 sequence (looked up) with Y20A, F23A
notes: source: E. coli B834 RIL, purified (HisTrap, TEV cleavage, SEC); not shown: His6, N-terminal, cleaved; SUMO, N-terminal, cleaved
B3: TPX2 1-43: Aurora-A activating domain of TPX2 (aa 1–43) (protein)
chain: MSQVKSSYSYDAPSDFINFSSLDDEGDTQNIDSWFEEKANLENKLLGKNGTGGLFQGKTPLRKANLQQAIVTPLKPVDNTYYKEAEKENLVEQSIPSNACSSLEVEAAISRKTPAQPQRRSLRLSAQKDLEQKEKHHVKMKAKRCATPVIIDEILPSKKMKVSNNKKKPEEEGSAHQDTAEKNASSPEKAKGRHTVPCMPPAKQKFLKSTEEQELEKSMKMQQEVVEMRKKNEEFKKLALAGIGQPVKKSVSQVTKSVDFHFRTDERIKQHPKNQEEYKEVNFTSELRKHPSSPARVTKGCTIVKPFNLSQGKKRTFDETVSTYVPLAQQVEDFHKRTPNRYHLRSKKDDINLLPSKSSVTKICRDPQTPVLQTKHRARAVTCKSTAELEAEELEKLQQYKFKARELDPRILEGGPILPKKPPVKPPTEPIGFDLEIEKRIQERESKKKTEDEHFEFHSRPCPTKILEDVVGVPEKKVLPITVPKSPAFALKNRIRMPTKEDEEEDEPVVIKAQPVPHYGVPFKPQIPEARTVEICPFSFDSRDKERQLQKEKKIKELQKGEVPKFKALPLPHFDTINLPEKKVKNVTQIEPFCLETDRRGALKAQTWKHQLEEELRQQKEAACFKARPNTVISQEPFVPKKEKKSVAEGLSGSLVQEPFQLATEKRAKERQELEKRMAEVEAQKAQQLEEARLQEEEQKKEELARLRRELVHKANPIRKYQGLEIKSSDQPLTVPVSPKFSTRFHC

Data set [1] addresses Aurora-A (Homo sapiens) (UniProt O14965). The experiment in a line: fluorescence polarisation. The following applies: cited from earlier work.
The subject of data set [2] is PLK1-pT210 in RPE1 p53-/- cells. Briefly: Western blot densitometry, PLK1-pT210, RPE1 p53-/-. The format is cell-based, Homo sapiens. Conditions: mitotic RPE1 p53-/- lysates, inhibitor 30 min. The procedure: (§1) For measuring monopolar spindle diameter and counting centriolar foci by immunofluorescence, cells were treated with 10 µM STLC for 1 h and 4 h prior to fixation, respectively.
(§2) Drugs were resuspended in DMSO to the stock concentrations indicated in square brackets.
(§3) Cells were lysed on ice for 30 min in lysis buffer (50 mM tris pH 8.0, 300 mM NaCl, 0.2%(v/v) NP-40, 10%(v/v) glycerol, protease inhibitor cocktail C, phosphatase inhibitor cocktail 3 (Sigma, 1:200 dilution), 100 nM okadaic acid (Enzo, ALX-350-003-C100)). Lysates were then centrifuged at 14,000 × g, 15 min, 4 °C, the supernatants were transferred to a fresh tube, and the pellet was discarded. Protein concentrations were measured by Bradford assay using Protein Assay Dye Reagent Concentrate (Bio-Rad Laboratories, 5000006). NuPage LDS sample buffer, supplemented with NuPAGE sample reducing agent (Invitrogen) were added prior to boiling for 10 min at 90 °C. […] Nitrocellulose was then blocked in 5% milk (wt/v) in TBS, 0.1% Tween (v/v) (TBST) for 1 h. Primary and secondary antibodies were diluted in 5% milk, TBST and incubated overnight at 4 °C or for 1 h at room temperature, respectively. […]
(§4) Densitometric quantification of western blots was also performed in ImageJ. Intensity was measured in a rectangular region of interest (ROI) around each band. […] An adjacent region was also measured to account for background intensity.
In general terms: Immunoblotting shows a protein as a band on a membrane.

For data set [3], the system named is TCTP-pS46 in RPE1 p53-/- cells. The experiment in a line: Western blot densitometry, TCTP-pS46, RPE1 p53-/-. Conditions: mitotic RPE1 p53-/- lysates, inhibitor 30 min. It is filed as cell-based, Homo sapiens. On the procedure: as §1, §2, §3, §4
In data set [4] the target is T1, phosphorylated Aurora-A CAKD. The experiment in a line: ADP-Glo kinase assay, kemptide substrate. It is filed as biochemical. On the procedure:
Reactions were initiated by the addition of 10 μM ATP and 100 μM kemptide as substrate (Cambridge Bioscience Ltd). The reactions were incubated at room temperature for 60 min before 5 μl was transferred into 5 ul of ADP-Glo Reagent (Promega) in a 384-well low volume low binding plate (Greiner Bio-one). After a further 40 min at room temperature, 10 μl of kinase detection reagent was added to each well, and the reaction was allowed to incubate for an additional 30 min. Luminescence was measured on a HIDEX Sense plate reader (HIDEX) using a 1 s integration time. Control data was subtracted from the luminescence and three repeats were averaged before being fitted to a sigmoidal plot using Origin (OriginLab), where IC50 and EC50 values were calculated.
A general note: ADP-Glo turns the ADP formed in a reaction into a luminescent signal.

For data set [5], the target named is T2, Aurora-A CAKD. Briefly: Fluorescence anisotropy competition with FAM-TACC3 522-536. It is filed as binding. Conditions: in words. On the procedure: Assays were performed in 25 mM HEPES pH 7.5, 150 mM NaCl, 2 mM DTT, 5 mM MgCl2, 0.01% Tween 20. For CEP192 and TPX2 competition assays 10 μM Aurora-A kinase domain (phosphorylated or unphosphorylated C290A C393A 122–403) was preincubated on ice with 100 nM FAM-TPX2 7-43 or 100 nM FAM-CEP192 501–533. For TACC3 competition, due to weaker binding, 25 μM Aurora-A kinase domain (phosphorylated or unphosphorylated C290A C393A 122–403) was preincubated with 100 nM FAM-TACC3 522-536. Serial dilutions of competitor (CEP192) were performed in triplicate into a low volume 384-well black plate, before the premixed Aurora-A and tracer were added. A control row included no tracer. Plates were left incubating for 1 h at room temperature before the fluorescence anisotropy was measured using a HIDEX plate reader, with excitation at 485 nm and emission at 535 nm. […]
(§5) Fluorescence anisotropy data were processed using Microsoft Excel to calculate intensity and anisotropy using the equation listed in (Yeo et al, [2013]). The IC50 and Kd values were calculated using Origin (OriginLab) where the data fitted to a sigmoid and are summarised in Appendix Table S3.
(Fluorescence polarisation rises when a labelled molecule tumbles more slowly, as on binding a larger partner.)

Data set [6] deals with T3, unphosphorylated Aurora-A CAKD. The experiment in a line: Fluorescence anisotropy competition with FAM-TPX2 7-43. It is filed as binding. Conditions: in words, Aurora-A CAKD. On the procedure:
Assays were performed in 25 mM HEPES pH 7.5, 150 mM NaCl, 2 mM DTT, 5 mM MgCl2, 0.01% Tween 20. For CEP192 and TPX2 competition assays 10 μM Aurora-A kinase domain (phosphorylated or unphosphorylated C290A C393A 122–403) was preincubated on ice with 100 nM FAM-TPX2 7-43 or 100 nM FAM-CEP192 501–533. For TACC3 competition, due to weaker binding, 25 μM Aurora-A kinase domain (phosphorylated or unphosphorylated C290A C393A 122–403) was preincubated with 100 nM FAM-TACC3 522-536. Serial dilutions of competitor (CEP192) were performed in triplicate into a low volume 384-well black plate, before the premixed Aurora-A and tracer were added. A control row included no tracer. Plates were left incubating for 1 h at room temperature before the fluorescence anisotropy was measured using a HIDEX plate reader, with excitation at 485 nm and emission at 535 nm. For direct binding experiments, the assay was performed as above, but the Aurora-A (122–403 C290A C393A or point mutants) was diluted across the plate from high to low concentration, before the addition of 50 nM tracer (FAM-CEP192 501–533) to three replicate rows. Buffer only was added to the control row.
as §5

The target of data set [7] is B2. Briefly: ITC; 250 μM Aurora-A in the syringe, 25 μM CEP192 construct in the cell; 25 °C; 20 mM tris pH 7.5, 200 mM NaCl, 10% glycerol, 5 mM MgCl2. Conditions: both partners purified.
Data set [8] addresses T4, human CEP192 468–533. The description is as above. Conditions: both partners purified.
Data set [9] concerns the target B1. Described as above. Conditions: both partners purified.
Data set [10] deals with T5, Aurora-A^CAKD (Aurora-A kinase domain, …). Briefly: FP; competition with FAM-TPX2 7-43.
Data set [11] has as its target Aurora-A. Conditions: from ITC; ref (Burgess et al, [2015]; McIntyre et al, [2017]; Zorba et al, [2014]); cited from earlier work. The procedure:
This is a higher affinity than observed in a previous study that used CEP192 proteins fused to MBP, a large protein tag that might have affected the interaction (Park et al, [2023]). For context, the affinity of Aurora-A for its other key mitotic partners are: TPX2_1-43 (Kd 0.3–2 μM from ITC) and TACC ...

Chain of Aurora-A (Homo sapiens) (O14965 whole entry): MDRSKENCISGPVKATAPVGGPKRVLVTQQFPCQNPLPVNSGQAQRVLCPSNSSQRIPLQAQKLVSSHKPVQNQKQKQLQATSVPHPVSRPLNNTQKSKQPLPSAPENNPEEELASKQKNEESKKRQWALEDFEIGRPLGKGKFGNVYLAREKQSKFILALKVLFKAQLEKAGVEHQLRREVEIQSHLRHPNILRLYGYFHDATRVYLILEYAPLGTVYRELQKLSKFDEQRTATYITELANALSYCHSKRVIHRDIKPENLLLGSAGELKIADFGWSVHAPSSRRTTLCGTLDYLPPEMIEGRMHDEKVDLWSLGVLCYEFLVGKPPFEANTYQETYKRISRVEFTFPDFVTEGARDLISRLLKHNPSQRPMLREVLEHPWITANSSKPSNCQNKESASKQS

In the case of TACC3 519-563 (from UniProt Q9Y6A5), in data set [1], the Kd was 6000 nM.

With `CC[C@@H]1C(=O)N(C)c2cnc(Nc3ccc(C(=O)NC4CCN(C)CC4)cc3OC)nc2N1C1CCCC1` [BI2536], in [2], the “T-loop phosphorylation of PLK1 (pT210)” value is given as “decreased”. Further, the “phosphorylation of TCTP (pS46)” value in data set [3] was “decreased”.

On to “IWSPTCERRTCECHESIEKNKDKTDLPQSVVYQNEEGRWVTDLAYYTSFNSKQNLNVSLSDEMNEDFRSGSEAFDLIAQDEEEFNKEHQFIQ [CEP192 442-533, recombinant human CEP192 aa 442–533]”, for which the “effect on Aurora-A kinase activity” value in data set [4] (ADP-Glo, phosphorylated Aurora-A CAKD, kemptide, in words) was “partially inhibited the activity”. Further, the “competition for binding with FAM-TACC3 522-536” value in [5] is given as “competed for binding with FAM-TACC3_522-536”. Further, in data set [6], the “competition for binding with FAM-TPX2 7-43” value is recorded as “competed for binding with FAM-TPX2_7-43”.

For B1, the “stoichiometry N” value in [7] was found to be 0.84; in data set [8] it was 0.85.

In turn, B2 registered a Kd in data set [9] of 2000 nM. The IC50 in data set [10] is 14100 nM.

With B3, the EC50 in data set [4] (10 nM phosphorylated Aurora-A CAKD, 10 μM ATP, 100 μM kemptide, 60 min, n = 3, read-out: ADP-Glo EC50 (stimulation of Aurora-A activity)) came to 6.8 ± 0.5 nM; in data set [4] (ADP-Glo, 10 nM Aurora-A, first manuscript version, quoted by referee, read-out: concentration of 50 % max activation), 1 nM. The Kd in data set [11] is 300 to 2000 nM.

The term Kd denotes the free concentration of one partner at which half of the binding sites on the other are occupied at equilibrium, for simple one-to-one binding. One may read the stoichiometry N as the number of molecules, sites or subunits per partner or assembly. Usually IC50 stands for the concentration that gives 50% inhibition. A lower IC50 goes with greater potency in that assay.
